The labels stand for the following.
B1: E3 ubiquitin-protein ligase Hakai (Mus musculus), Q9JIY2 (parent)
chain: MDHTDNELQGTNSSGSLGGLDVRRRIPIKLISKQASKVKPAPRTQRTVSRMPAKAPQGDEEGFDYNEEQRYDCKGGELFGNQRRFPGHLFWDFKINILGEKDDTPVHFCDKCGLPIKVYGRMIPCKHVFCYDCAILHEKKGDKMCPGCSDPVQRIEQCTRGSLFMCSIVQGCKRTYLSQRDLQAHINHRHMRAGKPVTRASLENVHPPIAPPPTDIPDRFIMPPDKHHMSHIPPKQHIMMPPPPLQHVPHEHYNQPHEDIRAPPAELSMAPPPPRSVSQETFRISTRKHSNLITVPIQDDSSSGAREPPPPAPAPAHHHPEYQGQPVVSHPHHIMPPQQHYAPPPPPPPPISHPMPHPPQAAGTPHLVYSQAPPPPMTSAPPPITPPPGHIIAQMPPYMNHPPPGPPPPQHGGPPVTAPPPHHYNPNSLPQFTEDQGTLSPPFTQPGGMSPGIWPAPRGPPPPPRMQGPPSQTPLPGPHHPDQTRYRPYYQ

In one test the parent is B1. Particulars: with cadh1_human CDH1, P12830.
With MDHTDNELQGTNSSGSLGGLDVRRRIPIKLISKQASKVKPAPRTQRTVSRMPAKAPQGDEEGFDYNEEQRYDCKGGELFGNQRRFPGHLFWDFKINILGEKDDTPVHFCDKCGLPIKVYGRMIPCKHVFCYDCAILHEKKGDKMCPGCSDPVQRIEQCTRGSLFMCSIVQGAKRTYLSQRDLQAHINHRHMRAGKPVTRASLENVHPPIAPPPTDIPDRFIMPPDKHHMSHIPPKQHIMMPPPPLQHVPHEHYNQPHEDIRAPPAELSMAPPPPRSVSQETFRISTRKHSNLITVPIQDDSSSGAREPPPPAPAPAHHHPEYQGQPVVSHPHHIMPPQQHYAPPPPPPPPISHPMPHPPQAAGTPHLVYSQAPPPPMTSAPPPITPPPGHIIAQMPPYMNHPPPGPPPPQHGGPPVTAPPPHHYNPNSLPQFTEDQGTLSPPFTQPGGMSPGIWPAPRGPPPPPRMQGPPSQTPLPGPHHPDQTRYRPYYQ [C172A], the “effect of a mutation on the interaction” value is on record as “disrupting interaction”.

The variants in a further test derive from B1. Particulars: with src8_human CTTN.
As to MDHTDNELQGTNSSGSLGGLDVRRRIPIKLISKQASKVKPAPRTQRTVSRMPAKAPQGDEEGFDYNEEQRYDCKGGELFGNQRRFPGHLFWDFKINILGEKDDTPVHFCDKCGLPIKVYGRMIPCKHVFCYDCAILHEKKGDKMCPGCSDPVQRIEQCTRGSLFMCSIVQGAKRTYLSQRDLQAHINHRHMRAGKPVTRASLENVHPPIAPPPTDIPDRFIMPPDKHHMSHIPPKQHIMMPPPPLQHVPHEHYNQPHEDIRAPPAELSMAPPPPRSVSQETFRISTRKHSNLITVPIQDDSSSGAREPPPPAPAPAHHHPEYQGQPVVSHPHHIMPPQQHYAPPPPPPPPISHPMPHPPQAAGTPHLVYSQAPPPPMTSAPPPITPPPGHIIAQMPPYMNHPPPGPPPPQHGGPPVTAPPPHHYNPNSLPQFTEDQGTLSPPFTQPGGMSPGIWPAPRGPPPPPRMQGPPSQTPLPGPHHPDQTRYRPYYQ [C172A], the “effect of a mutation on the interaction” value is on record as “disrupting interaction”.

The variants in a further test derive from B1. Conditions: with cadh1_human CDH1, P12830. This is another data set of the same source.
Regarding MDHTDNELQGTNSSGSLGGLDVRRRIPIKLISKQASKVKPAPRTQRTVSRMPAKAPQGDEEGFDYNEEQRYDCKGGELFGNQRRFPGHLFWDFKINILGEKDDTPVHFCDKCGLPIKVYGRMIPCKHVFCYDCAILHEKKGDKMCPGCSDPVQRIEQCTRGSLFMASIVQGCKRTYLSQRDLQAHINHRHMRAGKPVTRASLENVHPPIAPPPTDIPDRFIMPPDKHHMSHIPPKQHIMMPPPPLQHVPHEHYNQPHEDIRAPPAELSMAPPPPRSVSQETFRISTRKHSNLITVPIQDDSSSGAREPPPPAPAPAHHHPEYQGQPVVSHPHHIMPPQQHYAPPPPPPPPISHPMPHPPQAAGTPHLVYSQAPPPPMTSAPPPITPPPGHIIAQMPPYMNHPPPGPPPPQHGGPPVTAPPPHHYNPNSLPQFTEDQGTLSPPFTQPGGMSPGIWPAPRGPPPPPRMQGPPSQTPLPGPHHPDQTRYRPYYQ [C166A], the “effect of a mutation on the interaction” value is on record as “disrupting interaction”.

In a further test the parent is B1. Particulars: with src8_human CTTN. The source holds these as a separate data set.
Turning to MDHTDNELQGTNSSGSLGGLDVRRRIPIKLISKQASKVKPAPRTQRTVSRMPAKAPQGDEEGFDYNEEQRYDCKGGELFGNQRRFPGHLFWDFKINILGEKDDTPVHFCDKCGLPIKVYGRMIPCKHVFCYDCAILHEKKGDKMCPGCSDPVQRIEQCTRGSLFMASIVQGCKRTYLSQRDLQAHINHRHMRAGKPVTRASLENVHPPIAPPPTDIPDRFIMPPDKHHMSHIPPKQHIMMPPPPLQHVPHEHYNQPHEDIRAPPAELSMAPPPPRSVSQETFRISTRKHSNLITVPIQDDSSSGAREPPPPAPAPAHHHPEYQGQPVVSHPHHIMPPQQHYAPPPPPPPPISHPMPHPPQAAGTPHLVYSQAPPPPMTSAPPPITPPPGHIIAQMPPYMNHPPPGPPPPQHGGPPVTAPPPHHYNPNSLPQFTEDQGTLSPPFTQPGGMSPGIWPAPRGPPPPPRMQGPPSQTPLPGPHHPDQTRYRPYYQ [C166A], the “effect of a mutation on the interaction” value was “disrupting interaction”.

A further test covers variants of B1. Particulars: with cadh1_human CDH1, P12830. This is another data set of the same source.
MDHTDNELQGTNSSGSLGGLDVRRRIPIKLISKQASKVKPAPRTQRTVSRMPAKAPQGDEEGFDYNEEQRYDCKGGELFGNQRRFPGHLFWDFKINILGEKDDTPVHFCDKCGLPIKVYGRMIPCKHVFCYDCAILHEKKGDKMCPGCSDPVQRIEQCTRGSLFMCSIVQGCKRTYLSQRDLQAAINHRHMRAGKPVTRASLENVHPPIAPPPTDIPDRFIMPPDKHHMSHIPPKQHIMMPPPPLQHVPHEHYNQPHEDIRAPPAELSMAPPPPRSVSQETFRISTRKHSNLITVPIQDDSSSGAREPPPPAPAPAHHHPEYQGQPVVSHPHHIMPPQQHYAPPPPPPPPISHPMPHPPQAAGTPHLVYSQAPPPPMTSAPPPITPPPGHIIAQMPPYMNHPPPGPPPPQHGGPPVTAPPPHHYNPNSLPQFTEDQGTLSPPFTQPGGMSPGIWPAPRGPPPPPRMQGPPSQTPLPGPHHPDQTRYRPYYQ [H185A]: the “effect of a mutation on the interaction” value is “disrupting interaction”.

The variants in a further test derive from B1. Particulars: with src8_human CTTN. The source holds these as a separate data set.
Take MDHTDNELQGTNSSGSLGGLDVRRRIPIKLISKQASKVKPAPRTQRTVSRMPAKAPQGDEEGFDYNEEQRYDCKGGELFGNQRRFPGHLFWDFKINILGEKDDTPVHFCDKCGLPIKVYGRMIPCKHVFCYDCAILHEKKGDKMCPGCSDPVQRIEQCTRGSLFMCSIVQGCKRTYLSQRDLQAAINHRHMRAGKPVTRASLENVHPPIAPPPTDIPDRFIMPPDKHHMSHIPPKQHIMMPPPPLQHVPHEHYNQPHEDIRAPPAELSMAPPPPRSVSQETFRISTRKHSNLITVPIQDDSSSGAREPPPPAPAPAHHHPEYQGQPVVSHPHHIMPPQQHYAPPPPPPPPISHPMPHPPQAAGTPHLVYSQAPPPPMTSAPPPITPPPGHIIAQMPPYMNHPPPGPPPPQHGGPPVTAPPPHHYNPNSLPQFTEDQGTLSPPFTQPGGMSPGIWPAPRGPPPPPRMQGPPSQTPLPGPHHPDQTRYRPYYQ [H185A]: the “effect of a mutation on the interaction” value is “disrupting interaction”.

The values above are taken from IntAct's records for PubMed 22252131.
